Experimental data: article PMC6795518

What was measured:
[1] = target: TcdB2-TccC3 from Photorhabdus luminescens (Pl-TcdB2-TccC3) (Photorhabdus luminescens) (UniProt Q8GF99); assay: BLI
[2] = target: XptA1 from Xenorhabdus nematophila (Xn-XptA1) (Xenorhabdus nematophila); assay: cryo-EM structure

TcdA1 from Photorhabdus luminescens (Pl-TcdA1), Q9RN43 1-2516
Kd [1]: 0.63 nM

TcdA4 from Morganella morganii (Mm-TcdA4) (natural protein)
Kd [1]: 11.3 nM

XptA1 from Xenorhabdus nematophila (Xn-XptA1) (natural protein)
Kd [1]: 1.99 nM | stoichiometry N [2]: 5
